In assay [1] the target is T1, human FcgRIa extracellular domain (human, UniProt P12314 16-292).
T1 construct: extracellular domain; also called hFcgRIa
In words: SPR 25C.

Assay [2] has as its target T2, human FcgRIIa type H extracellular domain (human, UniProt P12318 34-217).
T2 construct: extracellular domain; also called hFcgRIIaH
T2 sequence (looked up): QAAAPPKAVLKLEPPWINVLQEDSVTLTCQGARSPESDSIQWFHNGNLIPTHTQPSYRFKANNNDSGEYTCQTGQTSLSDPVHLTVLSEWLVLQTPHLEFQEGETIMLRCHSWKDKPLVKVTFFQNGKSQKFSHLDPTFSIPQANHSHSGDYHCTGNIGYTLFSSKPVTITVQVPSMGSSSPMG
Kind of assay: SPR 25C.

Assay [3] deals with T3, human FcgRIIa type R extracellular domain (human, UniProt P12318 34-217).
T3 construct: extracellular domain; also called hFcgRIIaR
T3 sequence (looked up): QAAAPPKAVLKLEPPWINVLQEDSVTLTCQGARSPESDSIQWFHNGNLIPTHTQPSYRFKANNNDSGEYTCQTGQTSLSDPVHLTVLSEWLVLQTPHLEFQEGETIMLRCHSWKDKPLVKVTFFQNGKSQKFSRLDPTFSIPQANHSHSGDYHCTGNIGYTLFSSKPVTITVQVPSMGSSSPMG
In words: SPR 25C.

Assay [4] addresses T4, human FcgRIIb extracellular domain (human, UniProt P31994 43-217).
T4 construct: extracellular domain; also called hFcgRIIb
T4 sequence (looked up): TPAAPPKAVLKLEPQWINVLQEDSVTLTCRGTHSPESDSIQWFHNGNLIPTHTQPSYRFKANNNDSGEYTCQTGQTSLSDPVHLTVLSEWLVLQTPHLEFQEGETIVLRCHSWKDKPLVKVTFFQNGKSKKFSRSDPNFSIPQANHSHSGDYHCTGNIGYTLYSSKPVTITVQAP
Kind of assay: SPR 25C.

In assay [5] the target is T5, human FcgRIIIa F158 extracellular domain (human, UniProt P08637 17-208).
T5 construct: extracellular domain; also called hFcgRIIIaF
In words: SPR 25C.

Assay [6] has as its target T6, human FcgRIIIa V158 extracellular domain (human, UniProt P08637 17-208).
T6 construct: extracellular domain; also called hFcgRIIIaV
Kind of assay: SPR 25C.

Another assay deals with human FcRn (human, UniProt P55899 24-290; P61769 21-119). Kind of assay: SPR 25C pH 6.0, steady state. A digest of the protocol: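 Antibody (~400 RU) captured on anti-Fab-lambda sensor chip, human FcRn injected as analyte.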
Assay [7] has as its target T7, biotinylated Fc-fused monkey CD137 (monkey, biotin on the AviTag).
T7 construct: also called cyCD137-Fc-BAP
Kind of assay: ELISA, 1 mM ADP, 10 ug/mL. Further details: reference not given here. As for the experimental part: (§1) The obtained antibodies were evaluated for binding to monkey CD137 by ELISA. The cyCD137-Fc-BAP prepared in Reference Example 1 was immobilized on Streptawell microtiter plates. After the unbound antigen was removed from the plates by washing each well of the plates with the wash buffer, the wells were blocked with 150 μL of a blocking buffer (TBS with 2% BSA) for 1 hour or more. The blocking buffer was removed from each well, and 100 μL of the purified antibodies diluted in TBS with a final concentration of 1 mM ADP, or TBS with a final concentration 1 mM ADP was added to each well. The plate to which the antibody was added was shaken at 600 rpm for 1 hour. The AP-conjugated anti-human lambda antibodies (BETHYL) diluted in TBS with a final concentration of 1 mM ADP were added to each well after washing with a wash buffer (TBS with 0.1% Tween20) containing a final concentration of 1 mM ADP. After incubation for one hour and washing with a wash buffer containing a final concentration of 1 mM […], BluePhos phosphate substrate (KPL) was added. Color development was measured by absorbance at 600 nm. Samples with a concentration-dependent increase in the absorbance ratio can be said to be bound to monkey CD137.

Assay [8] has as its target T7, biotinylated Fc-fused monkey CD137. Kind of assay: ELISA, 1 mM ADP, 2.5 ug/mL. Further details: reference not given here. As for the experimental part:
as §1

For assay [9] the target is unchanged. Kind of assay: ELISA, 1 mM ADP, 0.010 ug/mL. Further details: reference not given here. As for the experimental part: as §1
The target is the same in assay [10]. Kind of assay: ELISA, 1 mM ADP, 0.039 ug/mL. Further details: reference not given here. As to the method: as §1
Assay [11] has the same target. Kind of assay: ELISA, 1 mM ADP, 0.156 ug/mL. Further details: reference not given here. As for the experimental part: as §1
(ELISA stands for enzyme-linked immunosorbent assay.)

For assay [12] the target is unchanged. Kind of assay: ELISA, 1 mM ADP, 0.625 ug/mL. Further details: reference not given here. As for the experimental part: as §1

Results on 5 molecules are retold here after patent US20230272099A1 (Chugai, published 2023).

What is called Kd is the free concentration of one partner at which half of the binding sites on the other are occupied at equilibrium, for simple one-to-one binding.

T7 sequence (chain, as listed by the source limits assumed): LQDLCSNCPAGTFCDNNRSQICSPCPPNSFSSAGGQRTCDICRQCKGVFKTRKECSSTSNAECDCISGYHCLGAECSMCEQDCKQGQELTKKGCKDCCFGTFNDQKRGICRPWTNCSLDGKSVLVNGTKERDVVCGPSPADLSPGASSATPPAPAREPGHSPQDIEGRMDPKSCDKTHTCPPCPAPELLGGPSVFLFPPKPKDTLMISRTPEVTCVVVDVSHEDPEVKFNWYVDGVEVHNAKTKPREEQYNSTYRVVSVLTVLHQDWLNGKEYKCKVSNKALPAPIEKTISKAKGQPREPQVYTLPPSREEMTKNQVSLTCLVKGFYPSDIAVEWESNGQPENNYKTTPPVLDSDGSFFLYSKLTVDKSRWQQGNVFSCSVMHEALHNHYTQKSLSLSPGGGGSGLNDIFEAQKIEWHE
T6 sequence (P08637 17-208 F176V): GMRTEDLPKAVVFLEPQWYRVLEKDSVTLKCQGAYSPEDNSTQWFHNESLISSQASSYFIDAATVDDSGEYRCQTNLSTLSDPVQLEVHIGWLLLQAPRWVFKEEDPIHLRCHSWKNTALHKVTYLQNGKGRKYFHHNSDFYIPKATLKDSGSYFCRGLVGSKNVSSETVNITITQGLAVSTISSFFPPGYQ
T5 sequence (P08637 17-208): as the sequence (P08637 17-208 F176V) above, with V160F counted along it
T1 sequence (P12314 16-292): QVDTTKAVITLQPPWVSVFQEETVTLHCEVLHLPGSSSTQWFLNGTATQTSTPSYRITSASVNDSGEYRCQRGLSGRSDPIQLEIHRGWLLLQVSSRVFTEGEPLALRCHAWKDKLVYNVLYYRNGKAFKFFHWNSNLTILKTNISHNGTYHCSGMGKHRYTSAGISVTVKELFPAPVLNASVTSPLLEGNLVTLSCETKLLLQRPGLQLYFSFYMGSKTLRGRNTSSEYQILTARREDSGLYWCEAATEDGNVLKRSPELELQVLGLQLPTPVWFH
Chain of human FcRn (P55899 24-290 limits assumed, chain 1 of 2): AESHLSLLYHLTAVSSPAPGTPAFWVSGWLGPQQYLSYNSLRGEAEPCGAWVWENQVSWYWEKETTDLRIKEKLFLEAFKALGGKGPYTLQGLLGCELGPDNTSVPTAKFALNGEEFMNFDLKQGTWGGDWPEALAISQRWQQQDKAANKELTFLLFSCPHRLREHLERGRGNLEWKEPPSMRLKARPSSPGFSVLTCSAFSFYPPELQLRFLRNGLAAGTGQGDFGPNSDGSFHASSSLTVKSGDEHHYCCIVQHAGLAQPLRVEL
Chain of human FcRn (P61769 21-119 limits assumed, chain 2 of 2): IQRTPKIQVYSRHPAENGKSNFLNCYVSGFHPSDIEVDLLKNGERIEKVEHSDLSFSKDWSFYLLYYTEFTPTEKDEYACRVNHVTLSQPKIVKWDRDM

B1: A375-TT16/B167-Lamlib (antibody, human IgG1, lambda)
heavy: EVQLVESGGGLVKPGGSLRLSCAASGFTFSTFTMNWVRQAPGKGLEWVSSISSKSTYIEYADSFKVRFTISRDNAKNSLYLQMNSLRAEDTAVYYCARYGAKNFLNWVFDYWGQGTLVTVSSASTKGPSVFPLAPSSKSTSGGTAALGCLVKDYFPEPVTVSWNSGALTSGVHTFPAVLQSSGLYSLSSVVTVPSSSLGTQTYICNVNHKPSNTKVDKKVEPKSCDKTHTCPPCPAPEYLGDDSVFLFPPKPKDVLMISRTPEVTCVVVDVSHEDPEVKFNWYVDGVEVHNAKTKPREEQYNSTYRVVSVLPVLHQDWLNGKEYKCKVSNKALPKPIEKTISKAKGQPREPQVYTLPPSREEMTKNQVSLTCLVKGFYPSDIAVEWESNGQPENNYKTTPPVLDSDGSFFLYSKLTVDKSRWQQGNVFSCSVMHEALHNHYTQKSLSLSP
light: QSALTQPPSASGSPGQTVTISCTGTRYDVGYYEYVSWYQQHPGKAPKLMIYETSKRLSGVPDRFSGSKSGNTASLTVSGLQAEDEADYYCSSYRYEHQVSFGGGTKLTVLGQPKAAPSVTLFPPSSEELQANKATLVCLISDFYPGAVTVAWKADSSPVKAGVETTTPSKQSNNKYAASSYLSLTPEQWKSHRSYSCQVTHEGSTVEKTVAPTECS
notes: copies: 2 + 2
B1: the “binding per 1RU antibody” value in assay [1] was 0.0034 RU; in [2], 0.0126 RU; in assay [3], 0.0359 RU; in assay [4], 0.109 RU; in assay [5], 0.0001 RU; in [6], -0.0002 RU. The “relative binding (A375-G1T3/B167-Lamlib=1)” value is 0.04 in assay [1]; 0.22 in [2]; 0.77 in [3]; 9.94 in [4]; 0 in assay [5]; 0 in assay [6]. In addition, in the assay with human FcRn, the Kd was found to be 1510 nM.

B2: dBBAT053-P253 (antibody, human IgG1, lambda, V domains shown)
VH: EVQLVESGGDLVKPGGGLRLSCAASGFTFSTFTMNWVRQAPGKGLEWVSSISSRSNYIYYADSVKGRFTISRDNAKNSLYLQMNSLRAEDTAVYYCARFGLKNEMNWVFDYWGQGTLVTVSS
VL: QSALTQPPSASGSPGQTVTISCTGTSSDVGFYNYVSWYQQHPGKAPKLMIYEGSKKPSGVPDRFSGSKSGNTASLTVSGLQAEDEADYFCSVYSYIYYVLFGGGTKLTVLG
Turning to B2, the absorbance ratio in [7] came out at 17.9; in [8], 6.9; in assay [9], 0.8; in assay [10] it was 0.7; in assay [11], 1; in assay [12] it was 2.3.

B3: dBBAT007-P253 (antibody, human IgG1, lambda, V domains shown)
VH: EVQLVESGGDLVKPGGGLRLSCAASGFTFSGYTMNWVRQAPGKGLEWVSSISSRSNYAHYADSVKGRFTISRDNAKNSLYLQMNSLRAEDTAVYYCARFGLKNFMNWVFDYWGQGTLVTVSS
VL: QSALTQPPSASGSPGQTVTISCTGTSSDVGFYNYVSWYQQHPGKAPKLMIYGTSKRPSGVPDRFSGSKSGNTASLTVSGLQAEDEADYFCSSYAYDAQLVFGGGTKLTVLG
Turning to B3, the absorbance ratio in assay [7] amounted to 30.5; in assay [8], 30.2; in assay [9], 3.8; in assay [10], 0.7; in assay [11], 22; in assay [12], 29.2.

B4: dBBAT015-P253 (antibody, human IgG1, lambda, V domains shown)
VH: EVQLVESGGDLVKPGGGLRLSCAASGFTFSTYTMNWVRQAPGKGLEWVSSISSRSTYATYADSVKGRFTISRDNAKNSLYLQMNSLRAEDTAVYYCARYGLKNSLNWVFDYWGQGTLVTVSS
VL: QSALTQPPSASGSPGQTVTISCTGTSTDVGFYNYVSWYQQHPGKAPKLMIYEVSKKPSGVPDRFSGSKSGNTASLTVSGLQAEDEADYFCSTYSYDESVAFGGGTKLTVLG
Take B4: the absorbance ratio in assay [7] turned out to be 42.9; in assay [8], 32.4; in assay [9] it was 1.1; in assay [10] it was 1.5; in [11], 3.6; in assay [12], 14.4.

B5: dBBAT134-P253 (antibody, human IgG1, lambda, V domains shown)
VH: EVQLVESGGDLVKPGGGLRLSCAASGFTFSSYTMNWVRQAPGKGLEWVSSISSRSNYADYADSVKGRFTISRDNAKNSLYLQMNSLRAEDTAVYYCARYGAKNEMNWVFDYWGQGTLVTVSS
VL: QSALTQPPSASGSPGQTVTISCTGTSTDVGFYNYVSWYQQHPGKAPKLMIYEVSKRPSGVPDRFSGSKSGNTASLTVSGLQAEDEADYFCSSYTYDQQLMFGGGTKLTVLG
Take B5: the absorbance ratio in assay [7] was 33.9; in assay [8] it was 16.8; in [9], 1; in assay [10], 1.2; in assay [11], 2.2; in assay [12], 5.8.
